Data from paper PMC4595758, “Redox-switch regulatory mechanism of thiolase from Clostridium acetobutylicum” (Nature Communications, 2015).
Positions count from the first letter of the chain named. Names and notes keep the numbering of the source.

B1: Clostridium acetobutylicum thiolase (CaTHL), wild type, oxidized form (enzyme, UniProt P45359 1-392, looked up)
chain: MKEVVIASAVRTAIGSYGKSLKDVPAVDLGATAIKEAVKKAGIKPEDVNEVILGNVLQAGLGQNPARQASFKAGLPVEIPAMTINKVCGSGLRTVSLAAQIIKAGDADVIIAGGMENMSRAPYLANNARWGYRMGNAKFVDEMITDGLWDAFNDYHMGITAENIAERWNISREEQDEFALASQKKAEEAIKSGQFKDEIVPVVIKGRKGETVVDTDEHPRFGSTIEGLAKLKPAFKKDGTVTAGNASGLNDCAAVLVIMSAEKAKELGVKPLAKIVSYGSAGVDPAIMGYGPFYATKAAIEKAGWTVDELDLIESNEAFAAQSLAVAKDLKFDMNKVNVNGGAIALGHPIGASGARILVTLVHAMQKRDAKKGLATLCIGGGQGTAILLEKC
notes: Thiolase (acetyl-CoA acetyltransferase) of Clostridium acetobutylicum, amino acid residues 1-392, amplified from the chromosome and cloned into pET30a; In the crystal (oxidized form) a disulfide bond joins Cys88 and Cys378, and residues 280-292 are disordered; Two molecules per asymmetric unit; the tetramer is generated by crystallographic symmetry; also called C. acetobutylicum thiolase; type II …
B2: Clostridium acetobutylicum thiolase C378S mutant (reduced form of CaTHL) (enzyme, UniProt P45359 1-392, looked up)
chain: B1 chain with C378S
notes: Thiolase (acetyl-CoA acetyltransferase) of Clostridium acetobutylicum, amino acid residues 1-392, with the C378S mutation made by site-directed mutagenesis; Crystallized with 10 mM DTT; For the CoA complex the crystals were soaked with 30 mM CoA for 30 min; also called CaTHL C378S mutant

What was measured:
[1] = target: the molecule itself; assay: crystal structure; oxidized form of CaTHL, 1.77 Å, space group P2(1)2(1)2, two molecules per asymmetric unit, tetramer generated by crystallographic symmetry; crystals from 100 mM phosphate-citrate pH 4.2, 10% PEG 3,350, 200 mM sodium chloride at 293 K
[2] = target: the molecule itself; assay: crystal structure; CaTHL C378S (reduced form, 10 mM DTT) crystals soaked with 30 mM CoA for 30 min, 1.90 Å, space group P2(1)2(1)2

| Protein | stoichiometry N [1] | binding result [2] |
| --- | --- | --- |
| B1 | 4 |  |
| B2 |  | binds |
